In assay [1] the test system is PD-L1 in A375 melanoma cells. The assay is described as follows: Cell surface PD-L1 expression by flow cytometry. It counts as cell-based, human. On the procedure:
FIG. 4. […] Three melanoma cell lines were treated with 250 units/mL of interferons for 48 hours. Whole cell lysates were collected and subjected to RPPA assay. […] Red, high expression; green, low expression. All the data points were normalized for protein loading and transformed to linear value. […] Cell surface expression of PD-L1 was determined by flow cytometry. Representative histograms out of two independent experimental replicates are shown. C) IFN-α or IFN-γ (100 Units/ml); D-E) IFN-α or IFN-γ (250 Units/ml).
Expression levels of PD-L1 detected by Flow Cytometry.
On the technique in general: A flow cytometer gives signals particle by particle.

Assay [2] concerns A375 metastatic melanoma cells. The assay is described as follows: Matrigel invasion assay. It counts as cell-based, human. The note with it: compared to control, p<0.05. As to the method:
(§1) FIG. 1. A) Effect of IFN-γ on melanoma invasion potential detected by matrigel invasion assay. The represented data were from A375 metastatic melanoma cells treated with IFN-γ. *, p<0.05 compared to control. B) Adhesion analysis. A375 melanoma cells were seeded on top of fibroblast monolayer and incubated with IFN-γ for 1 hour, followed by MTT assay. *, p<0.05 compared to control.

The subject of another assay is A375 melanoma cells. The assay can be described thus: Adhesion of melanoma cells to fibroblast monolayer. It counts as cell-based, human. The note with it: incubated 1 hour, MTT assay. On the procedure:
as §1

Assay [3] concerns WM115, Sk-mel-28 and A375. The assay can be described thus: Reverse Phase Protein Array in three human melanoma cell lines. The note with it: 250 units/mL interferon. It counts as cell-based. As to the method:
FIG. 4. A) Heat map of Reverse Phase Protein Array (RPPA) showing distinct effects of IFN-α and IFN-γ on protein expression levels in three human melanoma cell lines (WM115, Sk-mel-28 and A375). Three melanoma cell lines were treated with 250 units/mL of interferons for 48 hours. Whole cell lysates were collected and subjected to RPPA assay. […] Red, high expression; green, low expression. All the data points were normalized for protein loading and transformed to linear value. […] Average changes of three cell lines detected by RPPA were shown in the figure. *, p<0.05 in comparison to control and IFN-α. C-E) Induction of PD-L1 by IFN-γ was diminished by the co-treatment of nNOS inhibitors. […]. Cell surface expression of PD-L1 was determined by flow cytometry. Representative histograms out of two independent experimental replicates are shown. C) IFN-α or IFN-γ (100 Units/ml); D-E) IFN-α or IFN-γ (250 Units/ml).
Reverse Phase Protein Array. Plated cells were treated with 250 units/mL of IFN-α or IFN-γ for […]. After washing with 1×PBS, lysis buffer (1% Triton X-100, 50 mM HEPES, pH 7.4, 150 mM NaCl, 1.5 mM MgCl2, 1 mM EGTA, 100 mM NaF, 10 mM Na pyrophosphate, 1 mM Na3VO4, 10% glycerol and 1% PIC) was added to the plates, followed by incubation on ice for 20 minutes with occasional shaking. Samples were then collected via scraping and spun down at 14,000 g^−1 for 10 minutes at 4° C. The protein concentration was then quantified by Bradford method and adjusted to 1.5 μg/μL with lysis buffer. Cell lysates were then mixed with 4×SDS sample buffer (40% glycerol, 8% SDS, 0.25M Tris-HCl, pH 6.8 with 10% BME). Miniscule amounts of serially diluted protein samples were then dotted on a nitrocellulose coated slide and probed with validated primary antibodies and a biotin-conjugated secondary antibody. The signals were amplified using Dako-Cytomation-Catalyzed system (Dako) and visualized by diaminobenzidine (DAB) colorimetric reaction. Dilution curves were fitted with Supercurve Fitting and the protein expressions normalized for protein loading.

A further assay relates to STAT3. The assay is described as follows: Western blot of STAT3 and phospho-STAT3 in A375 cells. To be noted: A375 cells exposed to interferon, 24 hours. It counts as cell-based, human. As to the method: FIG. 3. […] A375 cells were treated with 100 units/mL and 250 units/mL of IFN-γ or IFN-α for 24 hours; whole cell lysates and nuclear extracts were used for Western blot analysis to detect STAT3 and pSTAT3 respectively. […] Protein isolation and Western blotting. All samples were kept at 4° C. unless otherwise noted.
Nuclear and cytosolic protein extraction is described elsewhere (84). Cells were collected via centrifugation and re-suspended in buffer A (10 mM HEPES, pH 7.9, 10 mM KCl, 0.150 mM MgCl2, 0.5 mM DTT, 0.2 mM PMSF) with 1% PIC and allowed to swell for 10 minutes. 10% NP-40 was added and vortexed to lyse the cells. […] Buffer D (20 mM HEPES, 20% glycerol, 50 mM KCl, 0.5 mM EDTA, 0.5 mM DTT, and 0.2 mM PMSF) was then added to dilute the nuclear sample.
The membranes were blocked using 10% non-fat milk (NOS1, STAT1/2, Actin, Lamin A/C) or 5% bovine serum albumin (BSA; SH3057402; Fisher Scientific, Waltham, MA) (p-STAT1/3), then incubated with primary antibodies for 1 hour at room temperature or overnight at 4° C., followed by secondary antibodies for 1 hour at room temperature as recommended by the manufacturer. Blots were washed extensively with TBS-T after each antibody incubation.
(Immunoblotting shows a protein as a band on a membrane.)

B1: IFN-γ: Interferon-gamma, purchased from Invitrogen (protein, UniProt P01579 24-161, looked up)
Interferon gamma: QDPYVKEAENLKKYFNAGHSDVADNGTLFLGILKNWKEESDRKIMQSQIVSFYFKLFKNFKDDQSIQKSVETIKEDMNVKFFNSNKKKRDDFEKLTNYSVTDLNVQRKAIHELIQVMAELSPAAKTGKRKRSQMLFRG
With B1, the “MFI of PD-L1 staining obtained via flow cytometry” value in assay [1] (A375 cells, IFN-γ alone or with MAC-3-190 (3 μM), 72-hour treatment) was 3.3 folds of control. The “cell surface expression of PD-L1” value in assay [1] (interferon alone, three cell lines) is recorded as “increased”. In addition, the melanoma invasion potential entry in assay [2] is “significantly enhanced”. For the same molecule, the “adhesion capacity of melanoma cells to fibroblast cells” value with A375 melanoma cells is “significantly enhanced”. Besides, the “c-Myc and HIF-1α expression levels (RPPA)” value in assay [3] is reported as “Increased”. For the same molecule, the “PD-L1 expression level (RPPA)” value in assay [3] (average of three cell lines) is recorded as 1.8 fold of control. In addition, in the assay on STAT3, the Phospho-STAT3 levels is on record as 1.9 folds of control and the “expression levels of STAT3” value is on record as 1.6 folds of control.

The values above are taken from US12083113B2, “Use of neuronal nitric oxide synthase inhibitors for immunotherapy in melanoma patients” (Northwestern University, priority 2018, dated 2024).
